Data from patent US20070197457A1.

Assays:
[1] = biological target: GAL4 DNA binding domain fused in-frame to full-length SMAD1 (UniProt P04386); experiment: cell-based or functional assay
[2] = biological target: SMAD1 (wild-type, full-length R-SMAD); experiment: cell-based or functional assay

Row | GAL4/UAS-luciferase reporter, SMAD trans-activation activity at higher amounts of TAK1dn [1] [%] | GAL4/UAS-luciferase reporter, SMAD trans-activation, increase at low concentrations of TAK1dn [1] [%] | GAL4/UAS-luciferase reporter, caALK6-receptor-mediated trans-activation of SMAD1, maximum inhibition [1] | SMAD1-SBE CAT reporter (SMAD1-mediated transcription), maximum reduction [2] [%] | Substance
1 | 70 | 35 | – | – | dominant-negative TAK1 (TAK1dn) mutant (K63W) (from UniProt Q62073 1-579) (enzyme)
2 | – | – | 40 | 10 | constitutively active TAK1 (TAK1ca) lacking the 22 N-terminal amino acids (from UniProt Q62073 23-579) (enzyme)
